Reference: paper PMC3234919 (The Journal of Biological Chemistry, 2011)

Tests used:
crystal structure [1] = target: the molecule itself; test: crystal structure
crystal structure [2] = target: the molecule itself; test: crystal structure; remark: listed apart in the source
SEC = target: the molecule itself; test: SEC

| Protein | stoichiometry N (crystal structure [1]) | stoichiometry N (SEC) | other results |
| --- | --- | --- | --- |
| human peroxiredoxin IV C51A mutant (residues 37-271 of the preprotein) (enzyme, UniProt Q13162 37-271, looked up) GWETEERPRTREEEAHFYAGGQVYPGEASRVSVADHSLHLSKAKISKPAPYWEGTAVIDGEFKELKLTDYRGKYLVFFFYPLDFTFVCPTEIIAFGDRLEEFRSINTEVVACSVDSQFTHLAWINTPRRQGGLGPIRIPLLSDLTHQISKDYGVYLEDSGHTLRGLFIIDDKGILRQITLNDLPVGRSVDETLRLVQAFQYTDKHGEVCPAGWKPGSETIIPDPAGKLKYFDKLN | 10 | – | – |
| human peroxiredoxin IV C245A resolving cysteine mutant, sulfenylated at the peroxidatic cysteine (enzyme, UniProt Q13162 37-271, looked up, cysteine sulfenic acid at Cys-124 (peroxidatic cysteine)) GWETEERPRTREEECHFYAGGQVYPGEASRVSVADHSLHLSKAKISKPAPYWEGTAVIDGEFKELKLTDYRGKYLVFFFYPLDFTFVCPTEIIAFGDRLEEFRSINTEVVACSVDSQFTHLAWINTPRRQGGLGPIRIPLLSDLTHQISKDYGVYLEDSGHTLRGLFIIDDKGILRQITLNDLPVGRSVDETLRLVQAFQYTDKHGEVAPAGWKPGSETIIPDPAGKLKYFDKLN | – | – | stoichiometry N (crystal structure [2]): 10 |
| human peroxiredoxin IV, wild type, full-length mature protein (residues 37-271 of the preprotein) (enzyme, UniProt Q13162 37-271, looked up) GWETEERPRTREEECHFYAGGQVYPGEASRVSVADHSLHLSKAKISKPAPYWEGTAVIDGEFKELKLTDYRGKYLVFFFYPLDFTFVCPTEIIAFGDRLEEFRSINTEVVACSVDSQFTHLAWINTPRRQGGLGPIRIPLLSDLTHQISKDYGVYLEDSGHTLRGLFIIDDKGILRQITLNDLPVGRSVDETLRLVQAFQYTDKHGEVCPAGWKPGSETIIPDPAGKLKYFDKLN | – | 10 | – |
| human peroxiredoxin IV C245A resolving cysteine mutant, reduced (enzyme, UniProt Q13162 37-271, looked up) GWETEERPRTREEECHFYAGGQVYPGEASRVSVADHSLHLSKAKISKPAPYWEGTAVIDGEFKELKLTDYRGKYLVFFFYPLDFTFVCPTEIIAFGDRLEEFRSINTEVVACSVDSQFTHLAWINTPRRQGGLGPIRIPLLSDLTHQISKDYGVYLEDSGHTLRGLFIIDDKGILRQITLNDLPVGRSVDETLRLVQAFQYTDKHGEVAPAGWKPGSETIIPDPAGKLKYFDKLN | 10 | – | – |
| PrxIII (enzyme, UniProt P30048 62-256, looked up) APAVTQHAPYFKGTAVVNGEFKDLSLDDFKGKYLVLFFYPLDFTFVCPTEIVAFSDKANEFHDVNCEVVAVSVDSHFSHLAWINTPRKNGGLGHMNIALLSDLTKQISRDYGVLLEGSGLALRGLFIIDPNGVIKHLSVNDLPVGRSVEETLRLVKAFQYVETHGEVCPANWTPDSPTIKPSPAASKEYFQKVNQ | – | 2 | – |
